B1: PiggyBac transposable element-derived protein 1 (Homo sapiens), Q96JS3 (parent)
chain: MYEALPGPAPENEDGLVKVKEEDPTWEQVCNSQEGSSHTQEICRLRFRHFCYQEAHGPQEALAQLRELCHQWLRPEMHTKEQIMELLVLEQFLTILPKELQPCVKTYPLESGEEAVTVLENLETGSGDTGQQASVYIQGQDMHPMVAEYQGVSLECQSLQLLPGITTLKCEPPQRPQGNPQEVSGPVPHGSAHLQEKNPRDKAVVPVFNPVRSQTLVKTEEETAQAVAAEKWSHLSLTRRNLCGNSAQETVMSLSPMTEEIVTKDRLFKAKQETSEEMEQSGEASGKPNRECAPQIPCSTPIATERTVAHLNTLKDRHPGDLWARMHISSLEYAAGDITRKGRKKDKARVSELLQGLSFSGDSDVEKDNEPEIQPAQKKLKVSCFPEKSWTKRDIKPNFPSWSALDSGLLNLKSEKLNPVELFELFFDDETFNLIVNETNNYASQKNVSLEVTVQEMRCVFGVLLLSGFMRHPRREMYWEVSDTDQNLVRDAIRRDRFELIFSNLHFADNGHLDQKDKFTKLRPLIKQMNKNFLLYAPLEEYYCFDKSMCECFDSDQFLNGKPIRIGYKIWCGTTTQGYLVWFEPYQEESTMKVDEDPDLGLGGNLVMNFADVLLERGQYPYHLCFDSFFTSVKLLSALKKKGVRATGTIRENRTEKCPLMNVEHMKKMKRGYFDFRIEENNEIILCRWYGDGIISLCSNAVGIEPVNEVSCCDADNEEIPQISQPSIVKVYDECKEGVAKMDQIISKYRVRIRSKKWYSILVSYMIDVAMNNAWQLHRACNPGASLDPLDFRRFVAHFYLEHNAHLSD
B2: U4/U6 small nuclear ribonucleoprotein Prp31 (Homo sapiens), Q8WWY3 (parent)
chain: MSLADELLADLEEAAEEEEGGSYGEEEEEPAIEDVQEETQLDLSGDSVKTIAKLWDSKMFAEIMMKIEEYISKQAKASEVMGPVEAAPEYRVIVDANNLTVEIENELNIIHKFIRDKYSKRFPELESLVPNALDYIRTVKELGNSLDKCKNNENLQQILTNATIMVVSVTASTTQGQQLSEEELERLEEACDMALELNASKHRIYEYVESRMSFIAPNLSIIIGASTAAKIMGVAGGLTNLSKMPACNIMLLGAQRKTLSGFSSTSVLPHTGYIYHSDIVQSLPPDLRRKAARLVAAKCTLAARVDSFHESTEGKVGYELKDEIERKFDKWQEPPPVKQVKPLPAPLDGQRKKRGGRRYRKMKERLGLTEIRKQANRMSFGEIEEDAYQEDLGFSLGHLGKSGSGRVRQTQVNEATKARISKTLQRTLQKQSVVYGGKSTIRDRSSGTASSVAFTPLQGLEIVNPQAAEKKVAEANQKYFSSMAEFLKVKGEKSGLMST
partner: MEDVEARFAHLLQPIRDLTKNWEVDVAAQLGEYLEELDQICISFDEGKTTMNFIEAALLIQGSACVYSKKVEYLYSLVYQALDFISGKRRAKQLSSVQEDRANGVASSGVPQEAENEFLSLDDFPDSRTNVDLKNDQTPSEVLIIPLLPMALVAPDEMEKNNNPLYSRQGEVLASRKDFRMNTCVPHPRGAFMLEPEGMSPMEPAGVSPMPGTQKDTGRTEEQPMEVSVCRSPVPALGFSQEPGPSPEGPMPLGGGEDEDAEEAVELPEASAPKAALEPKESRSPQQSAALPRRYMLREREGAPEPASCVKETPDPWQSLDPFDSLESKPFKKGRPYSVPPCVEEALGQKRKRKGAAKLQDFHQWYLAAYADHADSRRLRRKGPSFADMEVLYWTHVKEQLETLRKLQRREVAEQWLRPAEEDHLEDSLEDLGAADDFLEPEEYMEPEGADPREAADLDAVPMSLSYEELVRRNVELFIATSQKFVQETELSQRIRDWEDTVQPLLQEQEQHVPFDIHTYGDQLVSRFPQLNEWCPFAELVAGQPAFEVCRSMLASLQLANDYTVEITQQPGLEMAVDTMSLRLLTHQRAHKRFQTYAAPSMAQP
B3: EF-hand domain-containing protein 1 (Homo sapiens), Q5JVL4 (parent)
chain: MVSNPVHGLPFLPGTSFKDSTKTAFHRSQTLSYRNGYAIVRRPTVGIGGDRLQFNQLSQAELDELASKAPVLTYGQPKQAPPADFIPAHVAFDKKVLKFDAYFQEDVPMSTEEQYRIRQVNIYYYLEDDSMSVIEPVVENSGILQGKLIKRQRLAKNDRGDHYHWKDLNRGINITIYGKTFRVVDCDQFTQVFLESQGIELNPPEKMALDPYTELRKQPLRKYVTPSDFDQLKQFLTFDKQVLRFYAIWDDTDSMYGECRTYIIHYYLMDDTVEIREVHERNDGRDPFPLLMNRQRVPKVLVENAKNFPQCVLEISDQEVLEWYTAKDFIVGKSLTILGRTFFIYDCDPFTRRYYKEKFGITDLPRIDVSKREPPPVKQELPPYNGFGLVEDSAQNCFALIPKAPKKDVIKMLVNDNKVLRYLAVLESPIPEDKDRRFVFSYFLATDMISIFEPPVRNSGIIGGKYLGRTKVVKPYSTVDNPVYYGPSDFFIGAVIEVFGHRFIILDTDEYVLKYMESNAAQYSPEALASIQNHVRKREAPAPEAESKQTEKDPGVQELEALIDTIQKQLKDHSCKDNIREAFQIYDKEASGYVDRDMFFKICESLNVPVDDSLVKELIRMCSHGEGKINYYNFVRAFSN
partner: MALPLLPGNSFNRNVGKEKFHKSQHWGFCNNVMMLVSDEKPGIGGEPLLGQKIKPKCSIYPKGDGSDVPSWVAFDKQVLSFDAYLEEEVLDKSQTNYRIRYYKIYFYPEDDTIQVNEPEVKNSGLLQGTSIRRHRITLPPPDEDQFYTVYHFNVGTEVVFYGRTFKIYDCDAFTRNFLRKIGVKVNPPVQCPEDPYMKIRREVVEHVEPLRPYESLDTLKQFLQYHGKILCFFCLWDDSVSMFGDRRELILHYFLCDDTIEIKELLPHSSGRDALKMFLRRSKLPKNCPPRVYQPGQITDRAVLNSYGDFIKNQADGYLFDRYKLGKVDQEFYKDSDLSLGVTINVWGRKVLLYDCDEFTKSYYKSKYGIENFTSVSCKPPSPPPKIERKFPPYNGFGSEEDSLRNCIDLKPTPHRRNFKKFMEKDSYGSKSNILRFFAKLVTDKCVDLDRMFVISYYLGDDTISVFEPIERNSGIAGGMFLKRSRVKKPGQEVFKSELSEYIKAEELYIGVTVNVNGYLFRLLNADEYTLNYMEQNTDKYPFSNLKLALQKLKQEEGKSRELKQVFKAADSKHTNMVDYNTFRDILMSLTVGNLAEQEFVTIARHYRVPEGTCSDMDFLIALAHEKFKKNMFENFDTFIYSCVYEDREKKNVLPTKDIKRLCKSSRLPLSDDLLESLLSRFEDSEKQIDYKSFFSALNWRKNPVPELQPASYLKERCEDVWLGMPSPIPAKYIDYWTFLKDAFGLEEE

Variants of B1 are the subject of the first assay. Conditions: with NR4A1, P22736-2.
NR4A1, P22736-2, sequence (P22736 other isoform, or with tags, fused parts or gaps): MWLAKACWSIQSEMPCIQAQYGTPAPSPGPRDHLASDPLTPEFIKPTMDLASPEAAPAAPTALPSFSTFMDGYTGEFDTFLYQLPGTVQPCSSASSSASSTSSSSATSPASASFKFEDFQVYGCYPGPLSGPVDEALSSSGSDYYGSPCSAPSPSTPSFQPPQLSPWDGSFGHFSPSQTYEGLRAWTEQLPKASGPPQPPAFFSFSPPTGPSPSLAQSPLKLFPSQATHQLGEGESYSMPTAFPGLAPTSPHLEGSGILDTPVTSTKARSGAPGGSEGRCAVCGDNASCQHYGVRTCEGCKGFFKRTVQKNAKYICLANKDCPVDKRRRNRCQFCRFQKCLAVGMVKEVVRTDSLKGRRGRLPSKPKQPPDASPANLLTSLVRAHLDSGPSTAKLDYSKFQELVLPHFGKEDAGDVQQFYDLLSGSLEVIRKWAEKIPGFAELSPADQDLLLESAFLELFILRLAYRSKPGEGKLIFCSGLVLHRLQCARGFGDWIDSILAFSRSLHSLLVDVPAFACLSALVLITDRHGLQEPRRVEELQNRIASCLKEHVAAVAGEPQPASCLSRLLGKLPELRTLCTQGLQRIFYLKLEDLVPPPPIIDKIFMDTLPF
Take Q248E: the “effect of a mutation on the interaction” value is listed as “with no effect”.

Variants of B1 are the subject of another assay. Particulars: with znf24_human ZNF24, P17028.
znf24_human ZNF24, P17028, sequence (P17028 whole entry): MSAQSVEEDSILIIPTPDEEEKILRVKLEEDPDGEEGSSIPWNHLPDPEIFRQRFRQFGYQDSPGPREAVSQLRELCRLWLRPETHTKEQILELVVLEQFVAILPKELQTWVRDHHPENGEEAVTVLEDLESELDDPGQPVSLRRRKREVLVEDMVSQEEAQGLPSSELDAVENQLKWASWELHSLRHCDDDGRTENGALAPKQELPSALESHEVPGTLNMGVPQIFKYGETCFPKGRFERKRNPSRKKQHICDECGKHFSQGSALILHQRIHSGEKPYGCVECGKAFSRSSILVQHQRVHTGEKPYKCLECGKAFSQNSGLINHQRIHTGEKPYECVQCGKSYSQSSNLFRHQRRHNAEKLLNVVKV
Take Q248E: the “effect of a mutation on the interaction” value is recorded as “with no effect”.

Another assay covers variants of B1. Conditions: with zn496_human ZNF496, Q96IT1.
zn496_human ZNF496, Q96IT1, sequence (Q96IT1 whole entry): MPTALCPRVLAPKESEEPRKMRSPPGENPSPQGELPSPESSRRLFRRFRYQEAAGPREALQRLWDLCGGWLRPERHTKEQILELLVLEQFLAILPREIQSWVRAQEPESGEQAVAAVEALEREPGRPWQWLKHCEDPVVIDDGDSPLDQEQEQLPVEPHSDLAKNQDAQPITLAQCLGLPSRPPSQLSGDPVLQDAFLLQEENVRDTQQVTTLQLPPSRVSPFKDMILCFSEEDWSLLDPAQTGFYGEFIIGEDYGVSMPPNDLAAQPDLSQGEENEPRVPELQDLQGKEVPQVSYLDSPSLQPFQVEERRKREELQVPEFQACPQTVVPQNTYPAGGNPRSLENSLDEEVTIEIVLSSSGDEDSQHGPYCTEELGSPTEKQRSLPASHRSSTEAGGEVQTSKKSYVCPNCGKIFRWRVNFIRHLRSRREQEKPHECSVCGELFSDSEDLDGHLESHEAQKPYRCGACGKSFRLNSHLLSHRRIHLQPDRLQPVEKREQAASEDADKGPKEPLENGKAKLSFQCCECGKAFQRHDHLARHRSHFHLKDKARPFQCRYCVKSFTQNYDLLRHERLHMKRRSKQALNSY
For the variant Q248E, the “effect of a mutation on the interaction” value is recorded as “with no effect”.

In a further assay the parent is B1. Conditions: with zsc22_human ZSCAN22, P10073.
zsc22_human ZSCAN22, P10073, sequence (P10073 whole entry): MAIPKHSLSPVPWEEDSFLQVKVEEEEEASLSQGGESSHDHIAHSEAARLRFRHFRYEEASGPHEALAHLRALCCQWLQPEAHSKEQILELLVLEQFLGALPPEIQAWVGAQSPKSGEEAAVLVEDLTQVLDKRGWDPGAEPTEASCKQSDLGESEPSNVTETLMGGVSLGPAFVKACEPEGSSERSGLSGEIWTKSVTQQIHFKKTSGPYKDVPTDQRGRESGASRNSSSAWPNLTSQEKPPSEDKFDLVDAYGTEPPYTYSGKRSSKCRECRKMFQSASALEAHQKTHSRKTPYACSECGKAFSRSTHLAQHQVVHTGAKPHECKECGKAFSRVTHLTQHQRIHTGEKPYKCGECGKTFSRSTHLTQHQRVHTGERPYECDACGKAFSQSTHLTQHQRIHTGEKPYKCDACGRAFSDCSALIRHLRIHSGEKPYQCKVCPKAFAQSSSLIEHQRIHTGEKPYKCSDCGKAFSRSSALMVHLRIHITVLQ
Turning to Q248E, the “effect of a mutation on the interaction” value is listed as “with no effect”.

In another assay the parent is B1. Conditions: with meox2_human MEOX2, P50222.
meox2_human MEOX2, P50222, sequence (P50222 whole entry): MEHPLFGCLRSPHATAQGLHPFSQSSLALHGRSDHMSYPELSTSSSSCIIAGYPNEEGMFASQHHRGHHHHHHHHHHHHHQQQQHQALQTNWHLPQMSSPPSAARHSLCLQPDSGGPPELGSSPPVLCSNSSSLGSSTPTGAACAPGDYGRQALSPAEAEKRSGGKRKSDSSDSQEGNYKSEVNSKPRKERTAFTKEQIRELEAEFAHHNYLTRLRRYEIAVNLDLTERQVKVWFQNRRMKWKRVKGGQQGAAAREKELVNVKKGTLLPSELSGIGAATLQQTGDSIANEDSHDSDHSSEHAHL
For the variant Q248E, the “effect of a mutation on the interaction” value is “with no effect”.

In a further assay the parent is B2. Conditions: with cndh2_human NCAPH2, Q6IBW4.
For the variant L107V, the “effect of a mutation on the interaction” value is recorded as “with no effect”.

Variants of B3 are the subject of another assay. Particulars: with efhc2_human EFHC2, Q5JST6.
Consider R159W, for which the “effect of a mutation on the interaction” value is given as “with no effect”. Same read-out and setting: the result for T508R reads “with no effect”; that for P77T, “disrupting interaction strength”. Still for that read-out and setting: as for M448T, the entry is “with no effect”.

(Values after IntAct's records for PubMed 25910212.)
